Here are results for two molecules from CN110623921A (BEIJING DONGFANG BIOTECH CO LTD, dated 2019).

Assay [1] deals with T1, CD19 (细胞表面CD19, Raji细胞) (UniProt P15391 20-556, limits assumed).
T1 sequence (looked up): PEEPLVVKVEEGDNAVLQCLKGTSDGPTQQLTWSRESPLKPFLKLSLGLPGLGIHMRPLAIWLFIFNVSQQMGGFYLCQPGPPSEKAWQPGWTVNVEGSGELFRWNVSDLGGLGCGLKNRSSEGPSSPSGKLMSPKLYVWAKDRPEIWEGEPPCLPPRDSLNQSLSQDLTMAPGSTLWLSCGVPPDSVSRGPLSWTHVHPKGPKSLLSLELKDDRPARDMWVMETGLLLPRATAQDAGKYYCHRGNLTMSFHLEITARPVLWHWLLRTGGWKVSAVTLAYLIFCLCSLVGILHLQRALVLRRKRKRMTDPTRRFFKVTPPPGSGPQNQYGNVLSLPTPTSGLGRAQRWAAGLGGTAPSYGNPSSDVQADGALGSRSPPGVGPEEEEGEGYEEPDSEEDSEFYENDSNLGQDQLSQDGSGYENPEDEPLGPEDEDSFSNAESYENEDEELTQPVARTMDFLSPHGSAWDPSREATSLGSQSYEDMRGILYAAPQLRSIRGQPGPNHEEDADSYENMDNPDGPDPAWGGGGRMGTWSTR
Description: cell-based or functional assay.

For assay [2], the target named is T1, CD19 (细胞表面CD19, Raji细胞). Description: flow cytometry on Raji cells, Alexa488 anti-human IgG-Fc, MFI fitted in GraphPad Prism.
The next assay deals with T2, CD3 (细胞表面CD3, Jurkat细胞).
T2 construct: whole, on cells; also called CD3抗原; CD3阳性的Jurkat细胞
The assay is described as follows: flow cytometry on Jurkat cells, Alexa488 anti-human IgG-Fc, MFI fitted in GraphPad Prism. (In flow cytometry, cells or beads pass a laser one at a time.)

T2 sequence (P07766 23-207): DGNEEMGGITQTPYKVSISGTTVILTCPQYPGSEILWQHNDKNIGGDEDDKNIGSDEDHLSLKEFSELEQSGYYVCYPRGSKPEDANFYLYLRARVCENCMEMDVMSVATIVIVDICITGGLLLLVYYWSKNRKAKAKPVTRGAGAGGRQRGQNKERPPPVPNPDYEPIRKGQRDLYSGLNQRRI

B1: 抗CD3和抗CD19双特异性抗体JY039 (bispecific antibody)
chain 1: not shown
chain 2: not shown
chain 3: QVQLQQSGAELVRPGSSVKISCKASGYAFSSYWMNWVKQRPGQGLEWIGQIWPGDGDTNYNGKFKGKATLTADESSSTAYMQLSSLASEDSAVYFCARRETTTVGRYYYAMDYWGQGTTVTVSS
chain 4: DIQLTQSPASLAVSLGQRATISCKASQSVDYDGDSYLNWYQQIPGQPPKLLIYDASNLVSGIPPRFSGSGSGTDFTLNIHPVEKVDAATYHCQQSTEDPWTFGGGTKLEIK
By EC50 is commonly meant the midpoint of the concentration-response curve. On to B1, for which, in the assay with CD19 (细胞表面CD19, Raji细胞) [1], the “EC50 of PBMC-mediated killing of Raji cells (LDH release)” value is 0.00126 nM. Besides, the EC50 in the assay with CD19 (细胞表面CD19, Raji细胞) [2] is 1.02 nM; with CD3 (细胞表面CD3, Jurkat细胞), 21.6 nM.

B2: 抗CD19的单克隆抗体 (JY039的抗CD19序列构建) (antibody, V domains shown)
VH: B1 chain 3
VL: B1 chain 4
notes: also called AntiCD19McAb; 抗CD19单克隆抗体
Take B2: in the assay with CD19 (细胞表面CD19, Raji细胞) [1], the “EC50 of PBMC-mediated killing of Raji cells (LDH release)” value turned out to be 0.222 nM. The EC50 with CD19 (细胞表面CD19, Raji细胞) [2] came to 0.191 nM.
